According to patent publication US20220298218A1 (ANTAG THERAPEUTICS, published 2022):
*1 amine or outer side, *2 acyl side, *3 side chain or, on linkers, in order; H or OH if unused. Where no end group is shown, it is not given here. Side-chain parts run from the residue outwards. The star is where a group is joined. C18 diacid = O=C(O)CCCCCCCCCCCCCCCCC(=O)*; γGlu = O=C(O)[C@H](CCC(=O)[*:2])N[*:1]; AEEA = NCCOCCOCC(=O)O

T1: human GIP receptor (human, UniProt P48546 22-466)
T1 sequence (looked up): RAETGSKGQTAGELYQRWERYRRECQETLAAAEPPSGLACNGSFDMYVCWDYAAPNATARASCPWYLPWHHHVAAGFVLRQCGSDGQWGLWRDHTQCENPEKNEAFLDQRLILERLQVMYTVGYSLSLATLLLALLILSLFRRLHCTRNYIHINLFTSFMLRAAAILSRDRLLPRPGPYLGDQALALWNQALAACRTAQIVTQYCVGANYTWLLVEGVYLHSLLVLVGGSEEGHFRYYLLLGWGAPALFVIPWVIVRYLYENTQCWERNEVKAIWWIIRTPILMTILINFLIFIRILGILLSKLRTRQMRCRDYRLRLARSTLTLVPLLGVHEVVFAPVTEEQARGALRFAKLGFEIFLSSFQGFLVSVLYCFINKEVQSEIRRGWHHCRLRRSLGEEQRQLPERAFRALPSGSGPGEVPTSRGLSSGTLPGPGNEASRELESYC

B1: AT587 (peptide)
peptide: EGTFISDYSIAMDKIK([AEEA-AEEA-γGlu-C18 diacid])QQDFVNWLLAQKPSSGAPPPS-NH2
modifications: N-terminus assumed
SMILES: CC[C@H](C)[C@H](NC(=O)[C@H](CO)NC(=O)[C@H](Cc1ccc(O)cc1)NC(=O)[C@H](CC(=O)O)NC(=O)[C@H](CO)NC(=O)[C@@H](NC(=O)[C@H](Cc1ccccc1)NC(=O)[C@@H](NC(=O)CNC(=O)[C@@H](N)CCC(=O)O)[C@@H](C)O)[C@@H](C)CC)C(=O)N[C@@H](C)C(=O)N[C@@H](CCSC)C(=O)N[C@@H](CC(=O)O)C(=O)N[C@@H](CCCCN)C(=O)N[C@H](C(=O)N[C@@H](CCCCNC(=O)COCCOCCNC(=O)COCCOCCNC(=O)CC[C@H](NC(=O)CCCCCCCCCCCCCCCCC(=O)O)C(=O)O)C(=O)N[C@@H](CCC(N)=O)C(=O)N[C@@H](CCC(N)=O)C(=O)N[C@@H](CC(=O)O)C(=O)N[C@@H](Cc1ccccc1)C(=O)N[C@H](C(=O)N[C@@H](CC(N)=O)C(=O)N[C@@H](Cc1c[nH]c2ccccc12)C(=O)N[C@@H](CC(C)C)C(=O)N[C@@H](CC(C)C)C(=O)N[C@@H](C)C(=O)N[C@@H](CCC(N)=O)C(=O)N[C@@H](CCCCN)C(=O)N1CCC[C@H]1C(=O)N[C@@H](CO)C(=O)N[C@@H](CO)C(=O)NCC(=O)N[C@@H](C)C(=O)N1CCC[C@H]1C(=O)N1CCC[C@H]1C(=O)N1CCC[C@H]1C(=O)N[C@@H](CO)C(N)=O)C(C)C)[C@@H](C)CC
B2: AT562 (peptide)
peptide: TFISDYSK([AEEA-AEEA-γGlu-C18 diacid])AMDKIHQQDFVNWLLAQKGKKNDW-OH
modifications: N-terminus assumed
SMILES: CC[C@H](C)[C@H](NC(=O)[C@H](CCCCN)NC(=O)[C@H](CC(=O)O)NC(=O)[C@H](CCSC)NC(=O)[C@H](C)NC(=O)[C@H](CCCCNC(=O)COCCOCCNC(=O)COCCOCCNC(=O)CC[C@H](NC(=O)CCCCCCCCCCCCCCCCC(=O)O)C(=O)O)NC(=O)[C@H](CO)NC(=O)[C@H](Cc1ccc(O)cc1)NC(=O)[C@H](CC(=O)O)NC(=O)[C@H](CO)NC(=O)[C@@H](NC(=O)[C@H](Cc1ccccc1)NC(=O)[C@@H](N)[C@@H](C)O)[C@@H](C)CC)C(=O)N[C@@H](Cc1c[nH]cn1)C(=O)N[C@@H](CCC(N)=O)C(=O)N[C@@H](CCC(N)=O)C(=O)N[C@@H](CC(=O)O)C(=O)N[C@@H](Cc1ccccc1)C(=O)N[C@H](C(=O)N[C@@H](CC(N)=O)C(=O)N[C@@H](Cc1c[nH]c2ccccc12)C(=O)N[C@@H](CC(C)C)C(=O)N[C@@H](CC(C)C)C(=O)N[C@@H](C)C(=O)N[C@@H](CCC(N)=O)C(=O)N[C@@H](CCCCN)C(=O)NCC(=O)N[C@@H](CCCCN)C(=O)N[C@@H](CCCCN)C(=O)N[C@@H](CC(N)=O)C(=O)N[C@@H](CC(=O)O)C(=O)N[C@@H](Cc1c[nH]c2ccccc12)C(=O)O)C(C)C
B3: AT590 (peptide)
peptide: EGTFISDYSIAMDKIK([AEEA-AEEA-γGlu-C18 diacid])QQDFVNWLLAQGPSSGAPPPS-NH2
modifications: N-terminus assumed
SMILES: CC[C@H](C)[C@H](NC(=O)[C@H](CO)NC(=O)[C@H](Cc1ccc(O)cc1)NC(=O)[C@H](CC(=O)O)NC(=O)[C@H](CO)NC(=O)[C@@H](NC(=O)[C@H](Cc1ccccc1)NC(=O)[C@@H](NC(=O)CNC(=O)[C@@H](N)CCC(=O)O)[C@@H](C)O)[C@@H](C)CC)C(=O)N[C@@H](C)C(=O)N[C@@H](CCSC)C(=O)N[C@@H](CC(=O)O)C(=O)N[C@@H](CCCCN)C(=O)N[C@H](C(=O)N[C@@H](CCCCNC(=O)COCCOCCNC(=O)COCCOCCNC(=O)CC[C@H](NC(=O)CCCCCCCCCCCCCCCCC(=O)O)C(=O)O)C(=O)N[C@@H](CCC(N)=O)C(=O)N[C@@H](CCC(N)=O)C(=O)N[C@@H](CC(=O)O)C(=O)N[C@@H](Cc1ccccc1)C(=O)N[C@H](C(=O)N[C@@H](CC(N)=O)C(=O)N[C@@H](Cc1c[nH]c2ccccc12)C(=O)N[C@@H](CC(C)C)C(=O)N[C@@H](CC(C)C)C(=O)N[C@@H](C)C(=O)N[C@@H](CCC(N)=O)C(=O)NCC(=O)N1CCC[C@H]1C(=O)N[C@@H](CO)C(=O)N[C@@H](CO)C(=O)NCC(=O)N[C@@H](C)C(=O)N1CCC[C@H]1C(=O)N1CCC[C@H]1C(=O)N1CCC[C@H]1C(=O)N[C@@H](CO)C(N)=O)C(C)C)[C@@H](C)CC
B4: AT586 (peptide)
peptide: EGTFISDYSIAMDKK([AEEA-AEEA-γGlu-C18 diacid])HQQDFVNWLLAQKPSSGAPPPS-NH2
modifications: N-terminus assumed
SMILES: CC[C@H](C)[C@H](NC(=O)[C@H](CO)NC(=O)[C@H](Cc1ccc(O)cc1)NC(=O)[C@H](CC(=O)O)NC(=O)[C@H](CO)NC(=O)[C@@H](NC(=O)[C@H](Cc1ccccc1)NC(=O)[C@@H](NC(=O)CNC(=O)[C@@H](N)CCC(=O)O)[C@@H](C)O)[C@@H](C)CC)C(=O)N[C@@H](C)C(=O)N[C@@H](CCSC)C(=O)N[C@@H](CC(=O)O)C(=O)N[C@@H](CCCCN)C(=O)N[C@@H](CCCCNC(=O)COCCOCCNC(=O)COCCOCCNC(=O)CC[C@H](NC(=O)CCCCCCCCCCCCCCCCC(=O)O)C(=O)O)C(=O)N[C@@H](Cc1c[nH]cn1)C(=O)N[C@@H](CCC(N)=O)C(=O)N[C@@H](CCC(N)=O)C(=O)N[C@@H](CC(=O)O)C(=O)N[C@@H](Cc1ccccc1)C(=O)N[C@H](C(=O)N[C@@H](CC(N)=O)C(=O)N[C@@H](Cc1c[nH]c2ccccc12)C(=O)N[C@@H](CC(C)C)C(=O)N[C@@H](CC(C)C)C(=O)N[C@@H](C)C(=O)N[C@@H](CCC(N)=O)C(=O)N[C@@H](CCCCN)C(=O)N1CCC[C@H]1C(=O)N[C@@H](CO)C(=O)N[C@@H](CO)C(=O)NCC(=O)N[C@@H](C)C(=O)N1CCC[C@H]1C(=O)N1CCC[C@H]1C(=O)N1CCC[C@H]1C(=O)N[C@@H](CO)C(N)=O)C(C)C
B5: AT588 (peptide)
peptide: EGTFISDYSIAMDKIK([AEEA-AEEA-γGlu-C18 diacid])QQDFVNWLLAQKGPSSGAPPPS-NH2
modifications: N-terminus assumed
SMILES: CC[C@H](C)[C@H](NC(=O)[C@H](CO)NC(=O)[C@H](Cc1ccc(O)cc1)NC(=O)[C@H](CC(=O)O)NC(=O)[C@H](CO)NC(=O)[C@@H](NC(=O)[C@H](Cc1ccccc1)NC(=O)[C@@H](NC(=O)CNC(=O)[C@@H](N)CCC(=O)O)[C@@H](C)O)[C@@H](C)CC)C(=O)N[C@@H](C)C(=O)N[C@@H](CCSC)C(=O)N[C@@H](CC(=O)O)C(=O)N[C@@H](CCCCN)C(=O)N[C@H](C(=O)N[C@@H](CCCCNC(=O)COCCOCCNC(=O)COCCOCCNC(=O)CC[C@H](NC(=O)CCCCCCCCCCCCCCCCC(=O)O)C(=O)O)C(=O)N[C@@H](CCC(N)=O)C(=O)N[C@@H](CCC(N)=O)C(=O)N[C@@H](CC(=O)O)C(=O)N[C@@H](Cc1ccccc1)C(=O)N[C@H](C(=O)N[C@@H](CC(N)=O)C(=O)N[C@@H](Cc1c[nH]c2ccccc12)C(=O)N[C@@H](CC(C)C)C(=O)N[C@@H](CC(C)C)C(=O)N[C@@H](C)C(=O)N[C@@H](CCC(N)=O)C(=O)N[C@@H](CCCCN)C(=O)NCC(=O)N1CCC[C@H]1C(=O)N[C@@H](CO)C(=O)N[C@@H](CO)C(=O)NCC(=O)N[C@@H](C)C(=O)N1CCC[C@H]1C(=O)N1CCC[C@H]1C(=O)N1CCC[C@H]1C(=O)N[C@@H](CO)C(N)=O)C(C)C)[C@@H](C)CC
B6: AT563 (peptide)
peptide: TFISDYSIAMDKIK([AEEA-AEEA-γGlu-C18 diacid])QQDFVNWLLAQKGKKNDW-OH
modifications: N-terminus assumed
SMILES: CC[C@H](C)[C@H](NC(=O)[C@H](CO)NC(=O)[C@H](Cc1ccc(O)cc1)NC(=O)[C@H](CC(=O)O)NC(=O)[C@H](CO)NC(=O)[C@@H](NC(=O)[C@H](Cc1ccccc1)NC(=O)[C@@H](N)[C@@H](C)O)[C@@H](C)CC)C(=O)N[C@@H](C)C(=O)N[C@@H](CCSC)C(=O)N[C@@H](CC(=O)O)C(=O)N[C@@H](CCCCN)C(=O)N[C@H](C(=O)N[C@@H](CCCCNC(=O)COCCOCCNC(=O)COCCOCCNC(=O)CC[C@H](NC(=O)CCCCCCCCCCCCCCCCC(=O)O)C(=O)O)C(=O)N[C@@H](CCC(N)=O)C(=O)N[C@@H](CCC(N)=O)C(=O)N[C@@H](CC(=O)O)C(=O)N[C@@H](Cc1ccccc1)C(=O)N[C@H](C(=O)N[C@@H](CC(N)=O)C(=O)N[C@@H](Cc1c[nH]c2ccccc12)C(=O)N[C@@H](CC(C)C)C(=O)N[C@@H](CC(C)C)C(=O)N[C@@H](C)C(=O)N[C@@H](CCC(N)=O)C(=O)N[C@@H](CCCCN)C(=O)NCC(=O)N[C@@H](CCCCN)C(=O)N[C@@H](CCCCN)C(=O)N[C@@H](CC(N)=O)C(=O)N[C@@H](CC(=O)O)C(=O)N[C@@H](Cc1c[nH]c2ccccc12)C(=O)O)C(C)C)[C@@H](C)CC

These binders were tested against T1, human GIP receptor (assay: cell-based or functional assay).

| Binder | cAMP agonism % Emax | cAMP antagonism | cAMP antagonism % inhib | cAMP antagonism pIC50 |
| --- | --- | --- | --- | --- |
| B1 | 0% | 3.98 nM | 90% | 8.4 |
| EGTFISDYSIAMDKIK([AEEA-AEEA-γGlu-C18 diacid])QQDFVNWLLAQKGPSSGAPPPS [AT589] | 0% | 5.84 nM | 95% | 8.2 |
| B2 | 0% | 3.98 nM | 82% | 8.4 |
| B3 | 0% | 5.41 nM | 93% | 8.3 |
| B4 | 0% | 25.1 nM | 80% | 7.6 |
| B5 | 0% | 23.3 nM | 97% | 7.6 |
| B6 | 0% | 4.64 nM | 80% | 8.3 |
